Residue numbers refer to the chain shown, from its start. Each block holds one molecule with its values, some of them ahead of it.
Columns and labels:
mouse PD1 [1] = biological target: T1, mouse PD1 (mouse, UniProt Q02242 25-288); assay: cell-based or functional assay
T1 sequence (looked up): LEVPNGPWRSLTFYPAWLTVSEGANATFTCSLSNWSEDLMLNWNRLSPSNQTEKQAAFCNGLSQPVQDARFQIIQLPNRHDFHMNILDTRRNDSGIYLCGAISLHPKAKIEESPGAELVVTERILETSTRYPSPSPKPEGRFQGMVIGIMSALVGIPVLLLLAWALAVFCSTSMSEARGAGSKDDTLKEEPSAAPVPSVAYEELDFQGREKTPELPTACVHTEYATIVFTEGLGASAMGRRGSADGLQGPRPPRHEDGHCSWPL

mouse CD20 [2] = biological target: T2, mouse CD20 (mouse, UniProt P19437 1-291); assay: flow cytometry on MC38/mCD20 cells
T2 construct: whole, on cells; also called mCD20; murine CD20
T2 sequence (looked up): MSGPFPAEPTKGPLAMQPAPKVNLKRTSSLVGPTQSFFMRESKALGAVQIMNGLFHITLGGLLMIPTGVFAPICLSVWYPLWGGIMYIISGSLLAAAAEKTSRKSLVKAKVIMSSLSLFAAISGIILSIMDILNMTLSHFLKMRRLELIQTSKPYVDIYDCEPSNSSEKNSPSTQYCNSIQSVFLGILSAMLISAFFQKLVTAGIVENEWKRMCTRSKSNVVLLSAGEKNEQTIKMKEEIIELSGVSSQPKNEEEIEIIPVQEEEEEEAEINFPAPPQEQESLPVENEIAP
Experimental: (§1) Cells (HEK 293, MC38 over-expressing mCD20 or Jurkat over-expressing mPD1) were resuspended in FACS wash (PBS with 1% FBS) at 1×10⁶ cells/mL. The staining was performed in 1×10⁵ cells per well. The antibodies were diluted with a ratio of 1:5 from a starting concentration of 1.3×10⁻⁰⁷ M. The diluted antibodies were then added into the wells containing cells. Cells were stained for 30 min at 2-8° C. and washed twice with FACS wash buffer. APC-conjugated goat anti-human IgG (Jackson Immuno Research, 109-607-003, 1:400) was added to stain the cells for 30 min at 2-8° C. Following washing, cells were fixed in 2% paraformaldehyde for 30 min at 2-8° C. After two washes, stained cells were analyzed using BD LSRFortessa™ FACS instrument. The results were analyzed by FlowJo. FSC/SSC gates were used to select mononuclear cells.

mouse PD1 [3] = biological target: T1, mouse PD1; assay: flow cytometry on Jurkat/mPD1 cells
Experimental: as §1

mouse CD20 [4] = biological target: T2, mouse CD20; assay: flow cytometry on HEK293/mCD20 cells
Experimental: as §1

Molecule: Single arm mPDL1 WT-Fc (from UniProt Q9EP73 19-239) (Fc fusion)
Max MFI (mouse CD20 [2]): 94.9 MFI

B1: 1B12IgG1EN (antibody)
heavy 1: QVQLQQPGAELVRPGTSVKLSCKASGYTFTSYWMHWIKQRPGQGLEWIGVIDPSDNYTKYNQKFKGKATLTVDTSSSTAYMQLSSLTSEDSAVYFCAREGYYGSSPWFAYWGQGTLVTVSSASTKGPSVFPLAPSSKSTSGGTAALGCLVKDYFPEPVTVSWNSGALTSGVHTFPAVLQSSGLYSLSSVVTVPSSSLGTQTYICNVNHKPSNTKVDKKVEPKSCDKTHTCPPCPAPEAEGAPSVFLFPPKPKDTLMISRTPEVTCVVVDVSHEDPEVKFNWYVDGVEVHNAKTKPREEQYNSTYRVVSVLTVLHQDWLNGKEYKCKVSNKALPSSIEKTISKAKGQPREPQVYTLPPCRDELTKNQVSLWCLVKGFYPSDIAVEWESNGQPENNYKTTPPVLDSDGSFFLYSKLTVDKSRWQQGNVFSCSVMHEALHNHYTQKSLSLSPGK
heavy 2: B1 heavy 1 with Y353C, C358S, W370S, L372A, Y411V, H439R, Y440F
light: QIVMSQSPAILSASPGEKVTMTCRARSSVSYIHWYQQKPGSSPKPWIYATSNLASGVPGRFSGSGSGTSYSLTITRVEAEDAATYYCQQWSSKPPTFGGGTKLEIKRTVAAPSVFIFPPSDEQLKSGTASVVCLLNNFYPREAKVQWKVDNALQSGNSQESVTEQDSKDSTYSLSSTLTLSKADYEKHKVYACEVTHQGLSSPVTKSFNRGEC
notes: Control, bivalent anti-mCD20 IgG with knob and hole-star heavy chains; also called 1B12lgG1EN
Max % inhibition, luciferase bioassay, 1nM CD3 bsAb (mouse PD1 [1]): 19%
Max % inhibition, luciferase bioassay, 2.5 nM CD3 bsAb (mouse PD1 [1]): 0%
EC50 (mouse CD20 [2]): 1.71 nM
Max MFI (mouse CD20 [2]): 42000 MFI
Max MFI (mouse PD1 [3]): 118 MFI
binding result (mouse PD1 [3]): no binding (tested: starting concentration of 1.3×10^-07 M)
EC50 (mouse CD20 [4]): 13.5 nM
Max MFI (mouse CD20 [4]): 28200 MFI

Now from value to molecule, other results behind:

Max % inhibition, luciferase bioassay, 2.5 nM CD3 bsAb (mouse PD1 [1]): 3%
Max MFI (mouse CD20 [2]): 140 MFI
Max MFI (mouse PD1 [3]): 90.4 MFI
Max MFI (mouse CD20 [4]): 14.3 MFI
Molecule: REGN1932 (hIgG1 control) (antibody)

EC50 (mouse CD20 [2]): 18 nM
Max MFI (mouse CD20 [2]): 48300 MFI
Max MFI (mouse PD1 [3]): 198 MFI
B2: 18B12-scFvFc (scFv, V domains shown)
VH: QVQLQQPGAELVRPGTSVKLSCKASGYTFTSYWMHWIKQRPGQGLEWIGVIDPSDNYTKYNQKFKGKATLTVDTSSSTAYMQLSSLTSEDSAVYFCAREGYYGSSPWFAYWGQGTLVTVSS
VL: QIVMSQSPAILSASPGEKVTMTCRARSSVSYIHWYQQKPGSSPKPWIYATSNLASGVPGRFSGSGSGTSYSLTITRVEAEDAATYYCQQWSSKPPTFGGGTKLEIK
binding result (mouse PD1 [3]): no binding (tested: starting concentration of 1.3×10^-07 M)

Source: US20230279153A1 (Regeneron, published 2023)
